In assay [1] the target is T1, FcγRIIIa extracellular domain with C-terminal His tag (human, UniProt P08637 17-208).
T1 construct: extracellular domain; Soluble receptor expressed in FreeStyle293 cells, used as analyte in Biacore; also called FcgRIIIa; 3a; not shown: His tag attached to the C terminus
Put plainly: SPR (Biacore); ratio of He/Con_3a (FcγRIIIa) to He/Con_2b (FcγRIIb). The method, boiled down: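 Antigen peptide was immobilized on a CM5 chip by amine coupling or on an SA chip via biotin; test antibody was then captured, FcγR in running buffer injected, and the chip stripped with 10 mM glycine-HCl, pH 1.5, between cycles. Runs used HBS-EP+ at 25 °C.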

The target of assay [2] is T1, FcγRIIIa extracellular domain with …. Put plainly: SPR (Biacore), antibody captured via antigen peptide, FcγR as analyte; binding amount relative to control heterodimerized antibody. The procedure: (§1) The heterodimerized antibodies He Abs in which one of the H chains was introduced with an alteration were assayed for their binding activities to each activating FcγR and inhibitory FcγR according to the method described in Example 4. […] The activating FcγRs in FIGS. 26, 27, 28, and 29 are FcγRIa, FcγRIIa (R), FcγRIIa (H), and FcγRIIIa, respectively.
(§2) Analysis of interaction between objective antibody and the FcγR was carried out using Biacore T100 (GE Healthcare). HBS-EP+ (GE Healthcare) was used as the running buffer, and the measurement temperature was set to 25° C. Chips produced by immobilizing the antigen peptide by the amine coupling method to a Series S Sencor Chip CM5 (GE Healthcare), or alternatively, chips produced by allowing preliminarily biotinylated antigen peptides to interact with and immobilize onto a Series S Sensor Chip SA (certified) (GE Healthcare) were used. Antibodies of interest were captured onto an antigen peptide-immobilized chip, and allowed to interact to each FcγR diluted with running buffer. To regenerate and repeatedly use the chip, the antibodies captured on the chip were washed off by reacting 10 mM glycine-HCl, pH 1.5.

Assay [3] addresses T2, FcγRIIb extracellular domain with C-terminal His tag (human, UniProt P31994 43-217).
T2 construct: extracellular domain; Soluble receptor expressed in FreeStyle293 cells, used as analyte in Biacore; also called FcgRIIb; 2b; not shown: His tag attached to the C terminus
T2 sequence (looked up): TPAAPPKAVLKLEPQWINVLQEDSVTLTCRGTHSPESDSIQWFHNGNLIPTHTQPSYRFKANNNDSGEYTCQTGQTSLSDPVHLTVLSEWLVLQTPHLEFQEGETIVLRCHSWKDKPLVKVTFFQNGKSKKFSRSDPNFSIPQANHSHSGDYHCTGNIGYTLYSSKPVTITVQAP
The assay is described as above. As for the experimental part: as §1, §2

In assay [4] the target is T3, FcgRIIIa F (human, UniProt P08637 17-208).
T3 construct: extracellular domain; also called FcγRIIIa F; 3aF; not shown: His tag attached to the C terminus
T3 sequence (P08637 17-208): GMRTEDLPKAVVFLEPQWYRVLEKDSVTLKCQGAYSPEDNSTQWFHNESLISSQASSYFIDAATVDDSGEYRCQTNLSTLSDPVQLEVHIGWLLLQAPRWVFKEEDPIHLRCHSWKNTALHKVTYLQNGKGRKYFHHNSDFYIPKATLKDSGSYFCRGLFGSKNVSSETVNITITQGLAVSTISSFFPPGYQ
Briefly: SPR (Biacore); binding of the heterodimerized antibody relative to GpH7-A5/GpH7-B3/GpL16-k0 = 100.

T1 sequence (P08637 17-208): as above

B1: GpH7-A5/GpH7-B3 variant I336_02A/GpL16-k0 (heterodimerized antibody, He Ab) (antibody, human IgG1, kappa)
heavy 1: not shown
heavy 2: not shown
light: DIVMTQSPLSLPVTPGEPASISCQASESLVHSNRNTYLHWYLQKPGQSPQLLIYKVSNRFSGVPDRFSGSGSGTDFTLKISRVEAEDVGVYYCSQNTHVPPTFGQGTKVEIERTVAAPSVFIFPPSDEQLKSGTASVVCLLNNFYPREAKVQWKVDNALQSGNSQESVTEQDSKDSTYSLSSTLTLSKADYEKHKVYACEVTHQGLSSPVTKSFNRGEC
notes: Anti-glypican-3 IgG1 heterodimerized antibody; the alteration stands only in the GpH7-B3 chain; Positions in EU numbering; also called I336A
For the molecule B1, in assay [1], the “IIIa/IIb (He_3a/2b)” value turned out to be 1.31 ratio. The “He/Con_3a (IIIa binding)” value in assay [2] was 111 relative binding, GpH7-A5/GpH7-B3/GpL16-k0 = 100. Besides, in assay [3], the “He/Con_2b (IIb binding)” value is 84.9 relative binding, GpH7-A5/GpH7-B3/GpL16-k0 = 100.

B2: GpH7-A5/GpH7-B3 variant (H268D)/GpL16-k0 (antibody, human IgG1, kappa)
heavy 1: not shown
heavy 2: not shown
light: DIVMTQSPLSLPVTPGEPASISCQASESLVHSNRNTYLHWYLQKPGQSPQLLIYKVSNRFSGVPDRFSGSGSGTDFTLKISRVEAEDVGVYYCSQNTHVPPTFGQGTKVEIERTVAAPSVFIFPPSDEQLKSGTASVVCLLNNFYPREAKVQWKVDNALQSGNSQESVTEQDSKDSTYSLSSTLTLSKADYEKHKVYACEVTHQGLSSPVTKSFNRGEC
notes: also called H268_09D; He Ab
For B2, the He/Con_3aF in assay [4] is 195.

B3: GpH7-A5/GpH7-B3 variant I336_03V/GpL16-k0 (heterodimerized antibody, He Ab) (antibody, human IgG1, kappa)
heavy 1: not shown
heavy 2: not shown
light: DIVMTQSPLSLPVTPGEPASISCQASESLVHSNRNTYLHWYLQKPGQSPQLLIYKVSNRFSGVPDRFSGSGSGTDFTLKISRVEAEDVGVYYCSQNTHVPPTFGQGTKVEIERTVAAPSVFIFPPSDEQLKSGTASVVCLLNNFYPREAKVQWKVDNALQSGNSQESVTEQDSKDSTYSLSSTLTLSKADYEKHKVYACEVTHQGLSSPVTKSFNRGEC
notes: Anti-glypican-3 IgG1 heterodimerized antibody; the alteration stands only in the GpH7-B3 chain; Positions in EU numbering; also called I336V
With B3, the “IIIa/IIb (He_3a/2b)” value in assay [1] came out at 1.24 ratio. Further, the “He/Con_3a (IIIa binding)” value in assay [2] was 112 relative binding, GpH7-A5/GpH7-B3/GpL16-k0 = 100. In addition, in assay [3], the “He/Con_2b (IIb binding)” value was 90.3 relative binding, GpH7-A5/GpH7-B3/GpL16-k0 = 100.

B4: GpH7-A5/GpH7-B3 variant (A330F)/GpL16-k0 (antibody, human IgG1, kappa)
heavy 1: not shown
heavy 2: not shown
light: DIVMTQSPLSLPVTPGEPASISCQASESLVHSNRNTYLHWYLQKPGQSPQLLIYKVSNRFSGVPDRFSGSGSGTDFTLKISRVEAEDVGVYYCSQNTHVPPTFGQGTKVEIERTVAAPSVFIFPPSDEQLKSGTASVVCLLNNFYPREAKVQWKVDNALQSGNSQESVTEQDSKDSTYSLSSTLTLSKADYEKHKVYACEVTHQGLSSPVTKSFNRGEC
notes: also called A330_04F; He Ab
Consider B4, for which the He/Con_3aF in assay [4] worked out at 144.

B5: GpH7-A5/GpH7-B3 variant K334_15Y/GpL16-k0 (heterodimerized antibody, He Ab) (antibody, human IgG1, kappa)
heavy 1: not shown
heavy 2: not shown
light: DIVMTQSPLSLPVTPGEPASISCQASESLVHSNRNTYLHWYLQKPGQSPQLLIYKVSNRFSGVPDRFSGSGSGTDFTLKISRVEAEDVGVYYCSQNTHVPPTFGQGTKVEIERTVAAPSVFIFPPSDEQLKSGTASVVCLLNNFYPREAKVQWKVDNALQSGNSQESVTEQDSKDSTYSLSSTLTLSKADYEKHKVYACEVTHQGLSSPVTKSFNRGEC
notes: Anti-glypican-3 IgG1 heterodimerized antibody; the alteration stands only in the GpH7-B3 chain; Positions in EU numbering; also called K334Y
Turning to B5, in assay [1], the “IIIa/IIb (He_3a/2b)” value was determined as 1.29 ratio. Besides, the “He/Con_3a (IIIa binding)” value in assay [2] was 141 relative binding, GpH7-A5/GpH7-B3/GpL16-k0 = 100. For the same molecule, the “He/Con_2b (IIb binding)” value in assay [3] is 109 relative binding, GpH7-A5/GpH7-B3/GpL16-k0 = 100.

B6: GpH7-A5/GpH7-B3 variant K334_20W/GpL16-k0 (heterodimerized antibody, He Ab) (antibody, human IgG1, kappa)
heavy 1: not shown
heavy 2: not shown
light: DIVMTQSPLSLPVTPGEPASISCQASESLVHSNRNTYLHWYLQKPGQSPQLLIYKVSNRFSGVPDRFSGSGSGTDFTLKISRVEAEDVGVYYCSQNTHVPPTFGQGTKVEIERTVAAPSVFIFPPSDEQLKSGTASVVCLLNNFYPREAKVQWKVDNALQSGNSQESVTEQDSKDSTYSLSSTLTLSKADYEKHKVYACEVTHQGLSSPVTKSFNRGEC
notes: Anti-glypican-3 IgG1 heterodimerized antibody; the alteration stands only in the GpH7-B3 chain; Positions in EU numbering; also called K334W
Take B6: the “IIIa/IIb (He_3a/2b)” value in assay [1] was determined as 1.23 ratio. The “He/Con_3a (IIIa binding)” value in assay [2] is 128 relative binding, GpH7-A5/GpH7-B3/GpL16-k0 = 100. Besides, the “He/Con_2b (IIb binding)” value in assay [3] was 104 relative binding, GpH7-A5/GpH7-B3/GpL16-k0 = 100.

B7: GpH7-A5/GpH7-B3 variant I336_15Y/GpL16-k0 (heterodimerized antibody, He Ab) (antibody, human IgG1, kappa)
heavy 1: not shown
heavy 2: not shown
light: DIVMTQSPLSLPVTPGEPASISCQASESLVHSNRNTYLHWYLQKPGQSPQLLIYKVSNRFSGVPDRFSGSGSGTDFTLKISRVEAEDVGVYYCSQNTHVPPTFGQGTKVEIERTVAAPSVFIFPPSDEQLKSGTASVVCLLNNFYPREAKVQWKVDNALQSGNSQESVTEQDSKDSTYSLSSTLTLSKADYEKHKVYACEVTHQGLSSPVTKSFNRGEC
notes: Anti-glypican-3 IgG1 heterodimerized antibody; the alteration stands only in the GpH7-B3 chain; Positions in EU numbering; also called I336Y
As for B7, the “IIIa/IIb (He_3a/2b)” value in assay [1] turned out to be 1.28 ratio. Besides, in assay [2], the “He/Con_3a (IIIa binding)” value was 87.3 relative binding, GpH7-A5/GpH7-B3/GpL16-k0 = 100. In addition, in assay [3], the “He/Con_2b (IIb binding)” value was 68.2 relative binding, GpH7-A5/GpH7-B3/GpL16-k0 = 100.

(Values after patent US20180155451A1 (published 2018).)
